# In publication PMC4505822:
# Biological target: insertion mutant recombinant human prion protein with five additional octapeptide repeats (human) (UniProt P04156)
# Experiment: AFM height measurement with a calibration curve of marker proteins
substance,measurement,value
insertion mutant recombinant human prion protein with five additional octapeptide repeats (from UniProt P04156 23-231) (natural protein),stoichiometry N,11 to 22 monomers
